Reference: doi:10.1101/2020.06.12.148478 (bioRxiv, 2020)

T1: SpbR (Caulobacter crescentus, UniProt Q9A5X4 1-377)
T1 sequence (looked up): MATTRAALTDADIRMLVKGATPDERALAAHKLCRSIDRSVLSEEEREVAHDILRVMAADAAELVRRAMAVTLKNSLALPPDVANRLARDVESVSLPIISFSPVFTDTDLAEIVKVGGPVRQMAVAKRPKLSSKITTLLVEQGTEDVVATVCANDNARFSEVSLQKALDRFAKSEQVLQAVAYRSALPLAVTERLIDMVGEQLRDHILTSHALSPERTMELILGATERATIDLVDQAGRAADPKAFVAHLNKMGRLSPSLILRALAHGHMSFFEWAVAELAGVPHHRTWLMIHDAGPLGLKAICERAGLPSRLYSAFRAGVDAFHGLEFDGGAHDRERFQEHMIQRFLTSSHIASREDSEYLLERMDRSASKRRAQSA

B1: RcdA (natural protein, Caulobacter crescentus, UniProt A0A0H3CD07 1-169, looked up)
chain: MTEVNAFADTPWRAGVIQDFARSELFDRTFEEGMQLVEETAAYLDGAGRHDSKVLSRNAALGYATESMRLTTRLMQVASWLLVQRAVREGEMPPEAACAEAYRLAEEAPADGPAVEELPFGLMNLLQRSERLYERVRHLDRRMYVESPNEEAPRPVQNQLDRLTAAFGG
modifications: Fluorescin-5-Maleimide on cysteine in the fluorescence polarisation and MST experiments only; unlabelled elsewhere

Tests used:
[1] = biological target: TacA (Caulobacter crescentus); experiment: SEC-MALS
SpbR [2] = biological target: T1, SpbR; experiment: ITC
[3] = biological target: PopA (Caulobacter crescentus); experiment: SEC-MALS
MST = biological target: the molecule itself; experiment: MST
SpbR [4] = biological target: T1, SpbR; experiment: SEC-MALS
SEC-MALS = biological target: the molecule itself; experiment: SEC-MALS

Row | Molecule | stoichiometry N [1] [subunits] | Kd (SpbR [2]) [µM] | stoichiometry N (RcdA per PopA) [3] | stoichiometry N (RcdA per TacA chain (1 RcdA : 2 TacA)) [1] | Kd (MST) [µM] | stoichiometry N (SpbR [4]) [RcdA per SpbR] | stoichiometry N (SEC-MALS) [subunits]
1 | TacA (natural protein) | 2 |  |  |  |  |  | 
2 | B1 |  | 3.3 | 1 | 0.5 | 2.9 | 1 | 2
